Reference: patent publication US12072338B2, “Pharmaceutical peptides for the treatment of inflammatory diseases” (PROTAGONISTS LTD., priority 2007, dated 2024)

Legend:
[1] = biological target: T1, Eotaxin 3 (Homo sapiens, UniProt Q9Y258); assay: Micro-array analysis of chemokine binding peptides: Eotaxin 3
T1 construct: purchased 300-48
T1 sequence (Q9Y258 24-94): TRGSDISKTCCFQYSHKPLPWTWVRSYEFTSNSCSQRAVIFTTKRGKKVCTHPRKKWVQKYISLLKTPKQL
Experimental: (§1) (1) Printing: Chemokine (CK) solution (in water) was serially diluted with Print Reagent (GenTel BioSurfaces USA) to final concentrations of 50 μg and 25 μg/ml. BSA/BSA-Biotin control solutions (in water) were diluted with Print Reagent to 100 μg/ml. Amplified stock of M13 phage control (M13KEgIII Cloning Vector, New England Biolabs, Cat.No.E8101S) was stored in Tris Buffered Saline (TBS; pH7.5, 4° C.) and diluted with Print Reagent to the working titre (10^8 pfu/μl). An automated spotting robot (16 pin print tool, 0.4 mm head; BioRobotics, UK) was used to print the CK/BSA control/M13 control, 5 repeats per sample (CK 25 μg/ml and 50 μg/ml; BSA 100 μg/ml; M13 20 μl), on PATH Protein Microarray Slides (GenTel, Prod.No. 2-1005/-1025) at […], and 50-70% relative humidity. Printed micro-array slides were stored at Room Temperature (RT) or 4° C. for at least 24 h before use.
(§2) (2) Blocking: Block Buffer (500 μl/partition; PATHblock, GenTel, Prod.No. 2-1014) was applied to the slide for 1 hour at room temp (RT). After removal of Block Buffer, the slide was air dried for 25 minutes;
(§3) (3) Phage Presented Peptide Binding: Amplified recombinant phage stock was stored in TBS and diluted with Wash Buffer to working titer (10^7 pfu/μl). Recombinant phage suspension (300 μl) was applied per partition and incubated at RT for 1 hour with gentle agitation.
(§4) (4) First Washing: The slides were washed twice with Wash Buffer 300 μl/partition).
(§5) (5) Primary Antibody (Ab) Labeling: The slides were incubated with the Primary Ab (1 mg/ml diluted ×2500 (Wash Reagent), 300 μl; Mouse Anti-M13 monoclonal Ab; Amersham Biosciences, UK; Product Code 27-9420-01) for 45 minutes at RT.
(§6) (6) Second Washing: The slides were washed twice with Wash Buffer (300 μl/partition).
(§7) (7) Secondary Ab Labeling: The slides were incubated with Secondary Ab (1.5 mg/ml diluted ×5000 (Wash Reagent), 300 μl; Cy3-conjugated AffiniPure Goat Anti-Mouse IgG; Jackson ImmunoReserch Labs, USA; Product Code 115-165-062).
(§8) (8) Third Washing: The slides were washed twice with Wash Buffer (300 μl/partition).
(§9) (9) Rinse: the slides were rinsed twice with Rinse Buffer (PATHrinse, GenTel, Prod.No. 2-1018) then dried well.
(§10) (10) Scanning: The peptide-bound, labeled slide was scanned (Laser Intensity 80%, Gain 80%, Resolution 10 μm) with a ScanArray Life Scanner (Packard BioChip Technologies, USA).
(§11) (11) Analysis: Quantitative analysis of micro-array was performed by the SpotReader program of Niles Scientific (USA) and presented as Relative Fluorescence (RF) as a function of CK concentration. Micro-array readout (Cy3 fluorescence) was quantified to determine the relative binding affinities of a CBP for the CKs and by inference, the specificity of the CBP for binding to a CK.

[2] = biological target: T2, TECK (Homo sapiens, UniProt O15444); assay: Micro-array analysis of chemokine binding peptides: TECK
T2 construct: purchased 300-45
T2 sequence (O15444 24-150): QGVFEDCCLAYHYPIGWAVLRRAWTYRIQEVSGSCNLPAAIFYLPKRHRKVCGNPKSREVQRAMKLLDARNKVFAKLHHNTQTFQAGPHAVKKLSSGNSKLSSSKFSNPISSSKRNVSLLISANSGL
Experimental: as §1, §2, §3, §4, §5, §6, §7, §8, §9, §10, §11

[3] = biological target: T3, MCP-4 (Homo sapiens, UniProt Q99616); assay: Micro-array analysis of chemokine binding peptides: MCP-4
T3 construct: purchased 300-24
T3 sequence (Q99616 17-98): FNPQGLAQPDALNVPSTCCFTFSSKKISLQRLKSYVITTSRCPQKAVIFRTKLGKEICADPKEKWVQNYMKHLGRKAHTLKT
Experimental: as §1, §2, §3, §4, §5, §6, §7, §8, §9, §10, §11

[4] = biological target: T4, Mig (Homo sapiens, UniProt Q07325); assay: Micro-array analysis of chemokine binding peptides: Mig; details: limit = start of the upper 75% of that peptide's response range
T4 construct: purchased 300-26
T4 sequence (Q07325 23-125): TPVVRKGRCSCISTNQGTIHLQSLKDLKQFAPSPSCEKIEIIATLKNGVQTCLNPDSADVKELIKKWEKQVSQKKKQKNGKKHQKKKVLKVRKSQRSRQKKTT
Experimental: as §1, §2, §3, §4, §5, §6, §7, §8, §9, §10, §11

[5] = biological target: T5, MCP-2 (Homo sapiens, UniProt P80075); assay: Micro-array analysis of chemokine binding peptides: MCP-2
T5 construct: purchased 300-15
T5 sequence (P80075 24-99): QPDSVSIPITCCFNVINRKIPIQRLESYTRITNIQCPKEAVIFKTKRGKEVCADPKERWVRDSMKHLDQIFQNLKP
Experimental: as §1, §2, §3, §4, §5, §6, §7, §8, §9, §10, §11

[6] = biological target: T6, Lymphotactin (Homo sapiens, UniProt P47992); assay: Micro-array analysis of chemokine binding peptides: Lymphotactin
T6 construct: purchased 300-20
T6 sequence (P47992 22-114): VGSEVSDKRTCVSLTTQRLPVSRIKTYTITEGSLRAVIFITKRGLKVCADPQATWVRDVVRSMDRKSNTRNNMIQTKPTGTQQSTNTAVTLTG
Experimental: as §1, §2, §3, §4, §5, §6, §7, §8, §9, §10, §11

[7] = biological target: T7, Fractalkine (Homo sapiens, UniProt P78423); assay: Micro-array analysis of chemokine binding peptides: Fractalkine
T7 construct: purchased 300-31
T7 sequence (P78423 25-100 limits assumed): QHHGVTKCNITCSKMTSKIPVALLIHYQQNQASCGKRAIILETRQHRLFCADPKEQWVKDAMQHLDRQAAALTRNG
Experimental: as §1, §2, §3, §4, §5, §6, §7, §8, §9, §10, §11

[8] = biological target: T8, RANTES (Homo sapiens, UniProt P13501); assay: Micro-array analysis of chemokine binding peptides: RANTES
T8 construct: purchased 300-06
T8 sequence (P13501 24-91): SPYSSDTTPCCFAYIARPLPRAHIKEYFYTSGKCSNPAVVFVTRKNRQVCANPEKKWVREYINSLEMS
Experimental: as §1, §2, §3, §4, §5, §6, §7, §8, §9, §10, §11

[9] = biological target: T9, Exodus-2 (Homo sapiens, UniProt O00585); assay: Micro-array analysis of chemokine binding peptides: Exodus-2
T9 construct: purchased 300-35
T9 sequence (O00585 24-134): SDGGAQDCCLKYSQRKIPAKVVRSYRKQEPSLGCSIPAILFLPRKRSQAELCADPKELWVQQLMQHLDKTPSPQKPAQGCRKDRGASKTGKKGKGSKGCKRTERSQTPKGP
Experimental: as §1, §2, §3, §4, §5, §6, §7, §8, §9, §10, §11

[10] = biological target: T10, BCA-1 (Homo sapiens, UniProt O43927); assay: Micro-array analysis of chemokine binding peptides: BCA-1
T10 construct: purchased 300-47
T10 sequence (O43927 23-109): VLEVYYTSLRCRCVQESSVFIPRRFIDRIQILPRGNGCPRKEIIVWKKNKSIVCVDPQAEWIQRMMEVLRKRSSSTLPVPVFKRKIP
Experimental: as §1, §2, §3, §4, §5, §6, §7, §8, §9, §10, §11

[11] = biological target: T11, GRO-β (Homo sapiens, UniProt P19875); assay: Micro-array analysis of chemokine binding peptides: GRO-β
T11 construct: purchased 300-39
T11 sequence (P19875 35-107): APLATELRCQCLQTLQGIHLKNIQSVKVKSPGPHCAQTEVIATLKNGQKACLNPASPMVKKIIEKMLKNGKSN
Experimental: as §1, §2, §3, §4, §5, §6, §7, §8, §9, §10, §11

[12] = tested on: IL-8; assay: Micro-array analysis of chemokine binding peptides: IL-8
Chain of IL-8 (P10145 28-99 limits assumed): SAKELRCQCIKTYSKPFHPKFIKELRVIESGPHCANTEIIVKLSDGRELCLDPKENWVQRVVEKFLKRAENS
Experimental: as §1, §2, §3, §4, §5, §6, §7, §8, §9, §10, §11

[13] = biological target: T12, Eotaxin (Homo sapiens, UniProt P51671); assay: Micro-array analysis of chemokine binding peptides: Eotaxin
T12 construct: purchased 300-21
T12 sequence (P51671 24-97): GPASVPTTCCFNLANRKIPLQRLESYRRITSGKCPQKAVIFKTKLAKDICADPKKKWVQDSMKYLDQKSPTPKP
Experimental: as §1, §2, §3, §4, §5, §6, §7, §8, §9, §10, §11

[14] = biological target: T13, Eotaxin 2 (Homo sapiens, UniProt O00175); assay: Micro-array analysis of chemokine binding peptides: Eotaxin 2
T13 construct: purchased 300-33
T13 sequence (O00175 27-119): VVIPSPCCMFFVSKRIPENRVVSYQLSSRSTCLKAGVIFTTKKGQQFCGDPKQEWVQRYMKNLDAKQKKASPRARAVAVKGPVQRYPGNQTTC
Experimental: as §1, §2, §3, §4, §5, §6, §7, §8, §9, §10, §11

[15] = biological target: T14, I-TAC (Homo sapiens, UniProt O14625); assay: Micro-array analysis of chemokine binding peptides: I-TAC; details: limit = start of the upper 75% of that peptide's response range
T14 construct: purchased 300-46
T14 sequence (O14625 22-94): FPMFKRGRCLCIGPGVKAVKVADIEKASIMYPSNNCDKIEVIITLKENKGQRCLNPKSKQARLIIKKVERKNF
Experimental: as §1, §2, §3, §4, §5, §6, §7, §8, §9, §10, §11

[16] = biological target: T15, MCP-1 (Homo sapiens, UniProt P13500); assay: Micro-array analysis of chemokine binding peptides: MCP-1
T15 construct: purchased 300-04
T15 sequence (P13500 24-99): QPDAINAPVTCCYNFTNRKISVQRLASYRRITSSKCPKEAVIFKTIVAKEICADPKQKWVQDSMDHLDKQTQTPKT
Experimental: as §1, §2, §3, §4, §5, §6, §7, §8, §9, §10, §11

[17] = biological target: T16, IP-10 (Homo sapiens, UniProt P02778); assay: Micro-array analysis of chemokine binding peptides: IP-10; details: limit = start of the upper 75% of that peptide's response range
T16 construct: purchased 300-12
T16 sequence (P02778 22-98): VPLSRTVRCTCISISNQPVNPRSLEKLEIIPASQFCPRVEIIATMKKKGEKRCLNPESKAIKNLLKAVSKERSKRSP
Experimental: as §1, §2, §3, §4, §5, §6, §7, §8, §9, §10, §11

[18] = biological target: T17, SDF1-β (Homo sapiens, UniProt P48061); assay: Micro-array analysis of chemokine binding peptides: SDF1-β
T17 construct: purchased 300-28b
T17 sequence (P48061 22-93): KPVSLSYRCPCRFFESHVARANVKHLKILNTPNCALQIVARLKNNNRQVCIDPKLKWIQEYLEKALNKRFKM
Experimental: as §1, §2, §3, §4, §5, §6, §7, §8, §9, §10, §11

[19] = biological target: T18, C-TAC (Homo sapiens, UniProt Q9Y4X3); assay: Micro-array analysis of chemokine binding peptides: C-TAC
T18 construct: purchased 300-54
T18 sequence (Q9Y4X3 25-112): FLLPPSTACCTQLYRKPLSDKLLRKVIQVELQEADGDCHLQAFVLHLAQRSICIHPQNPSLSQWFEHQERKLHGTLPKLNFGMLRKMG
Experimental: as §1, §2, §3, §4
(5) Primary Antibody (Ab) Labeling: The slides were incubated with the Primary Ab (1 mg/ml diluted ×2500 (Wash Reagent), 300 μl; Mouse Anti-M13 monoclonal Ab; Amersham Biosciences, UK; Product Code 27-9420-01) for 45 minutes at RT. […]
as §11

[20] = biological target: T19, SDF1-α (Homo sapiens, UniProt P48061); assay: Micro-array analysis of chemokine binding peptides: SDF1-α
T19 construct: purchased 300-28a
T19 sequence (P48061 22-89 limits assumed): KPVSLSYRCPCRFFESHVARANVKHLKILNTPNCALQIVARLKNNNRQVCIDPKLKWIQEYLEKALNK
Experimental: as §1, §2, §3, §4, §5, §6, §7, §8, §9, §10, §11

SYYDDVGL [Ph-p27] was tested, and the “binding to Eotaxin 3, stated in words” value [1] was “bound”, the “binding to TECK, stated in words” value [2] was “bound” and the “binding to MCP-4, stated in words” value [3] was “bound”. The “binding to Mig with relatively high affinity (Relative Fluorescence Units)” value [4] was > 15,000 RFU, the “binding to MCP-2, stated in words” value [5] was “bound” and the “binding to Lymphotactin, stated in words” value [6] was “bound”. For the same substance, the “binding to Fractalkine, stated in words” value [7] was “bound”, the “binding to RANTES, stated in words” value [8] was “bound” and the “binding to Exodus-2, stated in words” value [9] was “bound”. For the same substance, the “binding to BCA-1, stated in words” value [10] was “bound”, the “binding to GRO-β, stated in words” value [11] was “bound” and the “binding to IL-8, stated in words” value [12] was “bound”. For the same substance, the “binding to Eotaxin, stated in words” value [13] was “bound”, the “binding to Eotaxin 2, stated in words” value [14] was “bound” and the “binding to I-TAC with relatively high affinity (Relative Fluorescence Units)” value [15] was > 15,000 RFU. For the same substance, the “binding to MCP-1, stated in words” value [16] was “bound”.
For “NAMCK (listed as Homo sapiens) [Ph-p8.11]”, the “binding to IP-10 with relatively high affinity (Relative Fluorescence Units)” value [17] was > 10,000 RFU, the “binding to Eotaxin 3 with relatively high affinity (Relative Fluorescence Units)” value ([1]; limit = start of the upper 75% of that peptide's response range) was > 10,000 RFU and the “binding to TECK, stated in words” value [2] was “bound”. For the same substance, the “binding to SDF1-β, stated in words” value [18] was “bound”, the “binding to C-TAC, stated in words” value [19] was “bound” and the “binding to SDF1-α, stated in words” value [20] was “bound”. The “binding to Exodus-2, stated in words” value [9] was “bound”, the “binding to BCA-1, stated in words” value [10] was “bound” and the “binding to I-TAC with relatively high affinity (Relative Fluorescence Units)” value [15] was > 10,000 RFU.
